Patent publication US20200231654A1 (Daiichi Sankyo, published 2020)
Positions count from the first letter of the chain named.

Assays:
[1] = target: T1, biotin-labeled pro-hMMP-9(cat)_His6_FLAG_Avi (human, UniProt P14780 20-449, biotin on the Avi tag (biotin ligase BirA)); assay: ELISA, biotinylated target on streptavidin plate, anti-S-tag HRP detection
T1 construct: Secretion signal Met1-Ala19 left out; also called pro human MMP-9 enzyme active domain; not shown: His tag (His6 by the construct's name)
Protocol: (§1) The biotin-labeled pro-hMMP-9(cat)_His6_FLAG_Avi obtained in (2-1-6) or biotin-labeled active hMMP-9(cat)_FLAG_Avi obtained in (2-1-7) was immobilized on a streptavidin coated 96-well plate (Thermo Fisher Scientific). After blocking with 3% BSA, 1 to 1,000 nM of the binding peptides were added, and reacted at room temperature for 1.5 hours. After washing, goat anti-S-Tag HRP conjugated (Bethyl Laboratories, Inc.) was added, and reacted at room temperature for 1 hour. After washing, substrates of ELISA POD substrate A.B.T.S kit (Nacalai Tesque Inc.) were added, and reacted at room temperature.

[2] = target: T2, biotin-labeled active hMMP-9(cat)_FLAG_Avi (human, UniProt P14780 107-449, biotin on the Avi tag (biotin ligase BirA)); assay: as above
T2 construct: His tag and propeptide removed; also called active human MMP-9 enzyme active domain
Protocol: as §1

[3] = target: active hMMP-9(cat)_Y179A (human, UniProt P14780 107-449); assay: cell-based or functional assay
[4] = target: active hMMP-9(cat)_D185A (human, UniProt P14780 107-449); assay: cell-based or functional assay
[5] = target: active hMMP-9(cat)_R424T (human, UniProt P14780 107-449); assay: cell-based or functional assay
[6] = target: active hMMP-9(cat)_Y393A (human, UniProt P14780 107-449); assay: cell-based or functional assay
[7] = target: active hMMP-9(cat)_P193A (human, UniProt P14780 107-449); assay: cell-based or functional assay
[8] = target: active hMMP-9(cat) (human, UniProt P14780 107-449); assay: cell-based or functional assay
[9] = target: active hMMP-9(cat)_V398A (human, UniProt P14780 107-449); assay: cell-based or functional assay
[10] = target: active hMMP-9(cat)_L397A (human, UniProt P14780 107-449); assay: cell-based or functional assay
[11] = target: active hMMP-9(cat)_F192A (human, UniProt P14780 107-449); assay: cell-based or functional assay
[12] = target: active hMMP-9(cat)_M422I (human, UniProt P14780 107-449); assay: cell-based or functional assay
[13] = target: active hMMP-9(cat)_Y423A (human, UniProt P14780 107-449); assay: cell-based or functional assay
[14] = target: T3, hMMP-9(cat)_E402Q_His6 (human, UniProt P14780 107-449); assay: size exclusion chromatography of the mixture
T3 construct: also called human MMP-9 enzyme active domain E402Q mutant; human MMP-9 E402Q mutant; not shown: His tag (His6 by the construct's name)
Protocol: After the reaction, 10 μl of the reaction solution was analyzed by size exclusion chromatography. The chromatographic conditions were as follows.

[15] = target: active hMMP-9(cat)_Y420A (human, UniProt P14780 107-449); assay: cell-based or functional assay
[16] = target: active hMMP-9(cat)_F110A (human, UniProt P14780 107-449); assay: cell-based or functional assay
[17] = target: active hMMP-9(cat)_L187A (human, UniProt P14780 107-449); assay: cell-based or functional assay
[18] = target: active hMMP-9(cat)_Q199G (human, UniProt P14780 107-449); assay: cell-based or functional assay
Chain of active hMMP-9(cat)_Q199G (P14780 107-449 Q199G): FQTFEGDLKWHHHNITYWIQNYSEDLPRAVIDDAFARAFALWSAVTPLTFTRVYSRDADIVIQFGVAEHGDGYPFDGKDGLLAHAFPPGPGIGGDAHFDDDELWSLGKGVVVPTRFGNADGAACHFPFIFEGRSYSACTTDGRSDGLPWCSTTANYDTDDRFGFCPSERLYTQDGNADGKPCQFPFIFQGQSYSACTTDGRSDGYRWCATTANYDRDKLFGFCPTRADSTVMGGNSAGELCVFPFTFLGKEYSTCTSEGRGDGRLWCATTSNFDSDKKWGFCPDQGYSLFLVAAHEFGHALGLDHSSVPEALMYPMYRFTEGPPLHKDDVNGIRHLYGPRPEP

T2 sequence (P14780 other isoform, or with tags, fused parts or gaps): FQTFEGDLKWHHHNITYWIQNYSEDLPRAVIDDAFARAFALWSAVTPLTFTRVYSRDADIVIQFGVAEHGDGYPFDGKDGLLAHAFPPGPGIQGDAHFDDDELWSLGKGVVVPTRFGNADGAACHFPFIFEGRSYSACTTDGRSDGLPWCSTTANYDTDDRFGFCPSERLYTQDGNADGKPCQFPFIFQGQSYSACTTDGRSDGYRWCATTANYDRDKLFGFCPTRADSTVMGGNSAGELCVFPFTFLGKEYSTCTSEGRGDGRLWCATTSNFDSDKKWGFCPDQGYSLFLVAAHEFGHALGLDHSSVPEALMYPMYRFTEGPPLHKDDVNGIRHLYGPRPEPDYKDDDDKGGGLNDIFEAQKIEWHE
T1 sequence (P14780 other isoform, or with tags, fused parts or gaps): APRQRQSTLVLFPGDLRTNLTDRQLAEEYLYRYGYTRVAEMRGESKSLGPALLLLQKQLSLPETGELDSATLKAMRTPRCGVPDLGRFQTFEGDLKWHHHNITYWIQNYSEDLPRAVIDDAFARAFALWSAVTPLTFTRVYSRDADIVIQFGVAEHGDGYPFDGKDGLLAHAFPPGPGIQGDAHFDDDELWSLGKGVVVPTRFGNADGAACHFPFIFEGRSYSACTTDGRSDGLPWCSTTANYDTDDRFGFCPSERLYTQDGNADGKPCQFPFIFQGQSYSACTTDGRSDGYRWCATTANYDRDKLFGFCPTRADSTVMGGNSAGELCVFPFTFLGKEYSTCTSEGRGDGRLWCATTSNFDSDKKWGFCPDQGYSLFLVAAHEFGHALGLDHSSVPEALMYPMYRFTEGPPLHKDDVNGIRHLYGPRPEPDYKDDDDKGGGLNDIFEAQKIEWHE
Chain of active hMMP-9(cat)_M422I (P14780 107-449 M422I): as the sequence (P14780 107-449 Q199G) above, with G93Q, M316I counted along it
Chain of active hMMP-9(cat)_V398A (P14780 107-449 V398A): as the sequence (P14780 107-449 Q199G) above, with G93Q, V292A counted along it
Chain of active hMMP-9(cat) (P14780 107-449): as the sequence (P14780 107-449 Q199G) above, with G93Q counted along it
Chain of active hMMP-9(cat)_Y393A (P14780 107-449 Y393A): as the sequence (P14780 107-449 Q199G) above, with G93Q, Y287A counted along it
Chain of active hMMP-9(cat)_L397A (P14780 107-449 L397A): as the sequence (P14780 107-449 Q199G) above, with G93Q, L291A counted along it
Chain of active hMMP-9(cat)_Y423A (P14780 107-449 Y423A): as the sequence (P14780 107-449 Q199G) above, with G93Q, Y317A counted along it
Chain of active hMMP-9(cat)_F192A (P14780 107-449 F192A): as the sequence (P14780 107-449 Q199G) above, with F86A, G93Q counted along it
T3 sequence (P14780 107-449 E402Q): as the sequence (P14780 107-449 Q199G) above, with G93Q, E296Q counted along it
Chain of active hMMP-9(cat)_Y179A (P14780 107-449 Y179A): as the sequence (P14780 107-449 Q199G) above, with Y73A, G93Q counted along it
Chain of active hMMP-9(cat)_F110A (P14780 107-449 F110A): as the sequence (P14780 107-449 Q199G) above, with F4A, G93Q counted along it
Chain of active hMMP-9(cat)_D185A (P14780 107-449 D185A): as the sequence (P14780 107-449 Q199G) above, with D79A, G93Q counted along it
Chain of active hMMP-9(cat)_L187A (P14780 107-449 L187A): as the sequence (P14780 107-449 Q199G) above, with L81A, G93Q counted along it
Chain of active hMMP-9(cat)_P193A (P14780 107-449 P193A): as the sequence (P14780 107-449 Q199G) above, with P87A, G93Q counted along it
Chain of active hMMP-9(cat)_Y420A (P14780 107-449 Y420A): as the sequence (P14780 107-449 Q199G) above, with G93Q, Y314A counted along it
Chain of active hMMP-9(cat)_R424T (P14780 107-449 R424T): as the sequence (P14780 107-449 Q199G) above, with G93Q, R318T counted along it

B1: wild type SPINK2 (other)
chain: GSGMKETAAAKFERQHMDSPDLGTDDDDKAMADIGSANSDPQFGLFSKYRTPNCSQYRLPGCPRHFNPVCGSDMSTYANECTLCMKIREGGHNIKIIRNGPCGASAAA
notes: also called WT; human SPINK2
binding result [1]: no binding (tested: 1 to 1,000 nM)
binding result [2]: no binding (tested: 1 to 1,000 nM)

B2: active MMP-9-binding peptide M91002 (designed binder)
chain: B1 chain with S55R, Q56T, Y57G, L59G, G61A, P63Q, R64M, H65G, N67Q
notes: SPINK2 mutant as prepared in (1-2): Stag+linker 1 at the N-terminal, C-terminal 6-mer at the C-terminal
binding result [1]: no binding (tested: 1 µM)
binding result [2]: binds

B3: active MMP-9-binding peptide M91012 (designed binder)
chain: B1 chain with S55R, Q56V, Y57R, R58G, L59G, G61S, P63Q, R64M, H65S
notes: as for B2
binding result [1]: no binding (tested: 1 µM)
binding result [2]: binds

B4: active MMP-9-binding peptide M91004 (designed binder)
chain: B1 chain with S55R, Y57R, R58K, L59G, G61S, P63Q, R64M, H65A, N67Q
notes: as for B2
binding result [1]: no binding (tested: 1 µM)
binding result [2]: binds

B5: active MMP-9-binding peptide M91010 (designed binder)
chain: B1 chain with S55R, Q56K, Y57V, R58G, L59E, G61A, P63Q, R64M, H65S
notes: as for B2
binding result [1]: no binding (tested: 1 µM)
binding result [2]: binds

B6: active MMP-9-binding peptide M91011 (designed binder)
chain: GSGMKETAAAKFERQHMDSPDLGTDDDDKAMADIGSANSDPQFGLFSKYRTPNCMMYKYAQCSHKSQPVCGSDMSTYANECTLCMKIREGGHNIKIIRNGPCGASAAA
notes: as for B2
IC50 of enzyme inhibition relative to the wild type [3]: 4.9 times
IC50 of enzyme inhibition relative to the wild type [4]: 19 times
IC50 of enzyme inhibition relative to the wild type [5]: 2.7 times
IC50 of enzyme inhibition relative to the wild type [6]: > 57.6 times
IC50 of enzyme inhibition relative to the wild type [7]: 6.5 times
IC50 of inhibition of substrate peptide degradation [8]: 17 nM
IC50 of enzyme inhibition relative to the wild type [9]: 4.8 times
IC50 of enzyme inhibition relative to the wild type [10]: 3.5 times
IC50 of enzyme inhibition relative to the wild type [11]: 5 times
IC50 of enzyme inhibition relative to the wild type [12]: 2.6 times
IC50 of enzyme inhibition relative to the wild type [13]: > 20 times
binding result [1]: no binding (tested: 1 µM)
binding result [14]: no binding (tested: 75 µM peptide with 25 µM target)

B7: active MMP-9-binding peptide M91005 (designed binder)
chain: B1 chain with S55R, Q56K, Y57R, R58G, L59G, G61S, P63Q, R64M, H65S, F66Y
notes: as for B2
IC50 of enzyme inhibition relative to the wild type [3]: 3.2 times
IC50 of enzyme inhibition relative to the wild type [6]: 2.7 times
IC50 of inhibition of substrate peptide degradation [8]: 17 nM
IC50 of enzyme inhibition relative to the wild type [15]: 3.1 times
IC50 of enzyme inhibition relative to the wild type [9]: 2.2 times
IC50 of enzyme inhibition relative to the wild type [10]: 2.2 times
IC50 of enzyme inhibition relative to the wild type [16]: 4 times
IC50 of enzyme inhibition relative to the wild type [17]: 6.7 times
IC50 of enzyme inhibition relative to the wild type [18]: 2.3 times
IC50 of enzyme inhibition relative to the wild type [11]: > 57.8 times
IC50 of enzyme inhibition relative to the wild type [12]: 2.6 times
IC50 of enzyme inhibition relative to the wild type [13]: 13.2 times
binding result [1]: no binding (tested: 1 µM)
binding result [14]: no binding (tested: 75 µM peptide with 25 µM target)

B8: active MMP-9-binding peptide M91014 (designed binder)
chain: B6 chain with M55V, S66Y, Q67K
notes: as for B2
binding result [1]: no binding (tested: 1 µM)
binding result [2]: binds

B9: active MMP-9-binding peptide M91001 (designed binder)
chain: GSGMKETAAAKFERQHMDSPDLGTDDDDKAMADIGSANSDPQFGLFSKYRTPNCQRGIGPSCQMSYKPVCGSDMSTYANECTLCMKIREGGHNIKIIRNGPCGASAAA
notes: as for B2
binding result [1]: no binding (tested: 1 µM)
binding result [2]: binds
